The results in this text go back to paper PMC6379665 (Nucleic Acids Research, 2018).

Usually stoichiometry N stands for a count of units in the complex or per binding partner.

Substitutions are numbered along the chain they refer to.

Assay in all cases: AUC
Assay [1] concerns the target bacteriophage λ terminase protomer (TerL•TerS2), wild type (bacteriophage λ) (UniProt P03708).
For assay [2], the target named is T1, bacteriophage λ terminase large subunit TerL^λ-E179Q (bacteriophage λ, UniProt P03708 1-641, E179Q).
T1 sequence (looked up): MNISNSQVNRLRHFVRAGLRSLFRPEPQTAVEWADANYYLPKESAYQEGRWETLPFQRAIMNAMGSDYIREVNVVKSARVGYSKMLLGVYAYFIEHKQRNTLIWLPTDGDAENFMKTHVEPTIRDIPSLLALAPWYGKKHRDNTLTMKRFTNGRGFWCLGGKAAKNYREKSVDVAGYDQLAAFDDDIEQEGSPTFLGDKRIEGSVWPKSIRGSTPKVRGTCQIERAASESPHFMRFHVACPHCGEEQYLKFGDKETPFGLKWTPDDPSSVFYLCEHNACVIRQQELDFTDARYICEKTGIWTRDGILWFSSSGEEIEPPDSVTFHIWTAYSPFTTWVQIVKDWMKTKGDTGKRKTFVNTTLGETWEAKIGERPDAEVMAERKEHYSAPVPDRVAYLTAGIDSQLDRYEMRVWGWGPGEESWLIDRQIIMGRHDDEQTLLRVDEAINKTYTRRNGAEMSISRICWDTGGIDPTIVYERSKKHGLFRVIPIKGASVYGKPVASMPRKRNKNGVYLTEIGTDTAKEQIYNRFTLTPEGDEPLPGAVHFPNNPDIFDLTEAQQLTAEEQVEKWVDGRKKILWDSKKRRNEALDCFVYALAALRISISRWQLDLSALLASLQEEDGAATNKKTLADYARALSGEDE

In assay [3] the target is T2, bacteriophage λ terminase large subunit TerL^λ, wild type (bacteriophage λ, UniProt P03708 1-641).
T2 sequence (looked up): T1 sequence (looked up) with Q179E

For assay [4], the target named is T3, bacteriophage λ terminase large subunit TerL^λ-E179A (bacteriophage λ, UniProt P03708 1-641, E179A).
T3 sequence (looked up): T1 sequence (looked up) with Q179A

Take “bacteriophage λ terminase protomer (TerL•TerS2), wild type (from UniProt P03708 1-641; P03707 1-181) (complex)”: in assay [1], the stoichiometry N is 4.

B1: bacteriophage λ terminase small subunit TerS (natural protein, UniProt P03707 1-181, looked up)
chain: MEVNKKQLADIFGASIRTIQNWQEQGMPVLRGGGKGNEVLYDSAAVIKWYAERDAEIENEKLRREVEELRQASEADLQPGTIEYERHRLTRAQADAQELKNARDSAEVVETAFCTFVLSRIAGEIASILDGLPLSVQRRFPELENRHVDFLKRDIIKAMNKAAALDELIPGLLSEYIEQSG
For B1, the binding result in assay [2], in assay [3] and in assay [4] was “binds” throughout.
